Three proteins from publication PMC9274488 can be followed below.

A short description of data set [1]: nuclear/cytoplasmic fractionation blot and immunofluorescence. To be noted: glycan lost; control: control cells (sh-CTRL).
A short description of data set [2]: cycloheximide chase, western blot. To be noted: glycan lost; control: without BADGP. Background: A western blot detects proteins with antibodies after separation by electrophoresis.
Another data set is described as follows: western blot. Conditions: glycan lost; control: untreated.
Data set [3] can be described thus: western blot, PANC1 and PaTU8988. To be noted: glycan lost; control: sh-CTRL.

B1: ZEB1: OGT knockdown (protein)
parent chain: MKVTNYNTVVETNSDSDDEDKLHIVEEESVTDAADCEGVPEDDLPTDQTVLPGRSSEREGNAKNCWEDDTGKEGQEILGPEAQADEAGCTVKDDECESDAENEQNHDPNVEEFLQQQDTAVIFPEAPEEDQRQGTPEASGHDENGTPDAFSQLLTCPYCDRGYKRFTSLKEHIKYRHEKNEDNFSCSLCSYTFAYRTQLERHMTSHKSGRDQRHVTQSGCNRKFKCTECGKAFKYKHHLKEHLRIHSGEKPYECPNCKKRFSHSGSYSSHISSKKCISLIPVNGRPRTGLKTSQCSSPSLSASPGSPTRPQIRQKIENKPLQEQLSVNQIKTEPVDYEFKPIVVASGINCSTPLQNGVFTGGGPLQATSSPQGMVQAVVLPTVGLVSPISINLSDIQNVLKVAVDGNVIRQVLENNQANLASKEQETINASPIQQGGHSVISAISLPLVDQDGTTKIIINYSLEQPSQLQVVPQNLKKENPVATNSCKSEKLPEDLTVKSEKDKSFEGGVNDSTCLLCDDCPGDINALPELKHYDLKQPTQPPPLPAAEAEKPESSVSSATGDGNLSPSQPPLKNLLSLLKAYYALNAQPSAEELSKIADSVNLPLDVVKKWFEKMQAGQISVQSSEPSSPEPGKVNIPAKNNDQPQSANANEPQDSTVNLQSPLKMTNSPVLPVGSTTNGSRSSTPSPSPLNLSSSRNTQGYLYTAEGAQEEPQVEPLDLSLPKQQGELLERSTITSVYQNSVYSVQEEPLNLSCAKKEPQKDSCVTDSEPVVNVIPPSANPINIAIPTVTAQLPTIVAIADQNSVPCLRALAANKQTILIPQVAYTYSTTVSPAVQEPPLKVIQPNGNQDERQDTSSEGVSNVEDQNDSDSTPPKKKMRKTENGMYACDLCDKIFQKSSSLLRHKYEHTGKRPHECGICKKAFKHKHHLIEHMRLHSGEKPYQCDKCGKRFSHSGSYSQHMNHRYSYCKREAEERDSTEQEEAGPEILSNEHVGARASPSQGDSDERESLTREEDEDSEKEEEEEDKEMEELQEEKECEKPQGDEEEEEEEEEVEEEEVEEAENEGEEAKTEGLMKDDRAESQASSLGQKVGESSEQVSEEKTNEA
Turning to B1, the localisation_or_trafficking entry in data set [1] was “decreases”.

B2: ZEB1: BADGP (protein)
parent chain: MKVTNYNTVVETNSDSDDEDKLHIVEEESVTDAADCEGVPEDDLPTDQTVLPGRSSEREGNAKNCWEDDTGKEGQEILGPEAQADEAGCTVKDDECESDAENEQNHDPNVEEFLQQQDTAVIFPEAPEEDQRQGTPEASGHDENGTPDAFSQLLTCPYCDRGYKRFTSLKEHIKYRHEKNEDNFSCSLCSYTFAYRTQLERHMTSHKSGRDQRHVTQSGCNRKFKCTECGKAFKYKHHLKEHLRIHSGEKPYECPNCKKRFSHSGSYSSHISSKKCISLIPVNGRPRTGLKTSQCSSPSLSASPGSPTRPQIRQKIENKPLQEQLSVNQIKTEPVDYEFKPIVVASGINCSTPLQNGVFTGGGPLQATSSPQGMVQAVVLPTVGLVSPISINLSDIQNVLKVAVDGNVIRQVLENNQANLASKEQETINASPIQQGGHSVISAISLPLVDQDGTTKIIINYSLEQPSQLQVVPQNLKKENPVATNSCKSEKLPEDLTVKSEKDKSFEGGVNDSTCLLCDDCPGDINALPELKHYDLKQPTQPPPLPAAEAEKPESSVSSATGDGNLSPSQPPLKNLLSLLKAYYALNAQPSAEELSKIADSVNLPLDVVKKWFEKMQAGQISVQSSEPSSPEPGKVNIPAKNNDQPQSANANEPQDSTVNLQSPLKMTNSPVLPVGSTTNGSRSSTPSPSPLNLSSSRNTQGYLYTAEGAQEEPQVEPLDLSLPKQQGELLERSTITSVYQNSVYSVQEEPLNLSCAKKEPQKDSCVTDSEPVVNVIPPSANPINIAIPTVTAQLPTIVAIADQNSVPCLRALAANKQTILIPQVAYTYSTTVSPAVQEPPLKVIQPNGNQDERQDTSSEGVSNVEDQNDSDSTPPKKKMRKTENGMYACDLCDKIFQKSSSLLRHKYEHTGKRPHECGICKKAFKHKHHLIEHMRLHSGEKPYQCDKCGKRFSHSGSYSQHMNHRYSYCKREAEERDSTEQEEAGPEILSNEHVGARASPSQGDSDERESLTREEDEDSEKEEEEEDKEMEELQEEKECEKPQGDEEEEEEEEEVEEEEVEEAENEGEEAKTEGLMKDDRAESQASSLGQKVGESSEQVSEEKTNEA
With B2, the degradation_or_half_life result in data set [2] was “decreases”. In addition, in the data set “western blot”, the expression_or_secretion result was “decreases”.

B3: ZEB1: sh-OGT (protein)
parent chain: MKVTNYNTVVETNSDSDDEDKLHIVEEESVTDAADCEGVPEDDLPTDQTVLPGRSSEREGNAKNCWEDDTGKEGQEILGPEAQADEAGCTVKDDECESDAENEQNHDPNVEEFLQQQDTAVIFPEAPEEDQRQGTPEASGHDENGTPDAFSQLLTCPYCDRGYKRFTSLKEHIKYRHEKNEDNFSCSLCSYTFAYRTQLERHMTSHKSGRDQRHVTQSGCNRKFKCTECGKAFKYKHHLKEHLRIHSGEKPYECPNCKKRFSHSGSYSSHISSKKCISLIPVNGRPRTGLKTSQCSSPSLSASPGSPTRPQIRQKIENKPLQEQLSVNQIKTEPVDYEFKPIVVASGINCSTPLQNGVFTGGGPLQATSSPQGMVQAVVLPTVGLVSPISINLSDIQNVLKVAVDGNVIRQVLENNQANLASKEQETINASPIQQGGHSVISAISLPLVDQDGTTKIIINYSLEQPSQLQVVPQNLKKENPVATNSCKSEKLPEDLTVKSEKDKSFEGGVNDSTCLLCDDCPGDINALPELKHYDLKQPTQPPPLPAAEAEKPESSVSSATGDGNLSPSQPPLKNLLSLLKAYYALNAQPSAEELSKIADSVNLPLDVVKKWFEKMQAGQISVQSSEPSSPEPGKVNIPAKNNDQPQSANANEPQDSTVNLQSPLKMTNSPVLPVGSTTNGSRSSTPSPSPLNLSSSRNTQGYLYTAEGAQEEPQVEPLDLSLPKQQGELLERSTITSVYQNSVYSVQEEPLNLSCAKKEPQKDSCVTDSEPVVNVIPPSANPINIAIPTVTAQLPTIVAIADQNSVPCLRALAANKQTILIPQVAYTYSTTVSPAVQEPPLKVIQPNGNQDERQDTSSEGVSNVEDQNDSDSTPPKKKMRKTENGMYACDLCDKIFQKSSSLLRHKYEHTGKRPHECGICKKAFKHKHHLIEHMRLHSGEKPYQCDKCGKRFSHSGSYSQHMNHRYSYCKREAEERDSTEQEEAGPEILSNEHVGARASPSQGDSDERESLTREEDEDSEKEEEEEDKEMEELQEEKECEKPQGDEEEEEEEEEVEEEEVEEAENEGEEAKTEGLMKDDRAESQASSLGQKVGESSEQVSEEKTNEA
With B3, the expression_or_secretion result in data set [3] is “decreases”.
